B1: E3 ubiquitin-protein ligase Midline-1, residues 172 to 214; numbered along this chain, O15344 (parent)
chain: GLMCLEHEDEKVNMYCVTDDQLICALCKLVGRHRDHQVAALSE

Variants of: B1
Assay: abundance fitness (aPCA) (normalised: wild type 0, dead -1); higher = more abundant; growth selection in yeast, the domain comes from the species named
Settings: Homo sapiens

Abundance fitness: each site, then its substitutions
H33: T -0.538, R -0.732, V -0.882, Y -0.603, K -0.423, Q -0.73, S -0.718, E -0.576, D -0.647, N -0.42, L -0.829, G -0.478, F -0.528, A -0.591, W -1.01
R34: Q 0.088, P -0.24, V -0.069, E 0.063, A 0.164, W -0.542, Y -0.544, G 0.048, S -0.066, I 0, D -0.169, K 0.376, L -0.376, H 0.25, C 0.033
A39: I -0.08, M -0.089, D 0.088, E 0.016, H -0.024, W -0.424, V 0.027, Y -0.393, S 0.102, T 0.181, Q 0.04, K 0.059, N 0.401, P -0.491, C 0.003
V30: W -0.309, G 0.134, K 0.235, F -0.381, R -0.055, L -0.028, H 0.21, Y -0.049, P 0.022, N 0.147, I -0.131, S 0.114, M -0.039
R32: I -0.18, C -0.021, D -0.072, F -0.593, K 0.116, L -0.058, N 0.287, P -0.022, T 0.09, W -0.323, S 0.073, Q 0.007, M -0.219, H -0.152, A 0.033, V -0.172, E 0.149, G 0.061
D35: V -0.28, L -0.172, N -0.114, S -0.189, M -0.299, Y -0.33, T -0.042, A -0.285, H -0.177, E 0.088, R -0.287, Q 0.034, I -0.496, K -0.105, F -0.254, C -0.142, P -0.299
H36: V -0.588, M -1.04, R -0.669, T -0.689, Q -0.284, A -0.445, I -0.488, D -0.798, P -0.637, S -0.533, E -0.546, L -0.753, N -0.376, Y -0.381, C -0.056, G -0.516, W -1.01, K 0.034
V38: W -0.018, K -0.209, N -0.243, S -0.008, C 0.076, F 0.124, M -0.18, L -0.035, R -0.217, G -0.134, T -0.233, H 0.082, Q -0.125, I -0.217, D -0.131
G31: E -0.154, W -0.803, T -0.333, D 0.111, K -0.065, R -0.299, F -0.519, Q -0.438, Y -0.19, L -0.47, A -0.231, I -0.887, M -0.514, C -0.121, S -0.263, H 0.057
A40: G 0.046, I -0.789, H -0.141, L -0.158, F 0.099, M -0.151, K 0.108, D 0.031
Q37: W -0.6, N -0.184, M -0.269, Y -0.169, L -0.338, F -0.347, T -0.026, V -0.208, G -0.146, I -0.508, R -0.077, P -0.015, D 0.105, H -0.148, E 0.023, A -0.006, S 0.047
